Among the data in PMC3808276 (2013) are Kd values, retold here.

One experiment has as its target T1, CXCL11 (Homo sapiens, UniProt O14625).
T1 chain: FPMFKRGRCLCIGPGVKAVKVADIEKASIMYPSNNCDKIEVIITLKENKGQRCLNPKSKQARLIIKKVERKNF
Briefly: ELISA. For orientation: An ELISA detects its analyte on a solid surface through an enzyme-linked reagent.

The target in the next experiment is CXCL10 (Homo sapiens, UniProt P02778). As to the kind of experiment: ELISA.
CXCL10, sequence (P02778 22-94): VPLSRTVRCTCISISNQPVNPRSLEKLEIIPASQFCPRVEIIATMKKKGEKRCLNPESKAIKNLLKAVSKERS

B1: Fg β15-66 15-66 (protein)
chain: MKHLLLLLLCVFLVKSQGVNDNEEGFFSARGHRPLDKKREEAPSLRPAPPPI
Take B1: the Kd amounted to 67 nM in the experiment with CXCL11 and 68 nM with CXCL10.

Usually Kd stands for the concentration at which binding is half-saturated.
